Tests used:
[1] = target: recombinant his-tagged soluble human IL-6R (human) (UniProt P08887); experiment: SPR; Biacore X100, multi-cycle, NTA sensor chip; his-tagged soluble hIL-6R or hIL-11R immobilised (100-250 RU per cycle); cytokines injected 133.33 to 0.183 nM, 30 uL/min, 180 s, dissociation 800 s; 25 °C, PBS with 0.05% P20 and 50 uM EDTA; two-state reaction fit
[2] = target: recombinant his-tagged soluble human IL-11R (human) (UniProt Q14626); experiment: as above
Sequence of recombinant his-tagged soluble human IL-11R (human) (Q14626 24-370): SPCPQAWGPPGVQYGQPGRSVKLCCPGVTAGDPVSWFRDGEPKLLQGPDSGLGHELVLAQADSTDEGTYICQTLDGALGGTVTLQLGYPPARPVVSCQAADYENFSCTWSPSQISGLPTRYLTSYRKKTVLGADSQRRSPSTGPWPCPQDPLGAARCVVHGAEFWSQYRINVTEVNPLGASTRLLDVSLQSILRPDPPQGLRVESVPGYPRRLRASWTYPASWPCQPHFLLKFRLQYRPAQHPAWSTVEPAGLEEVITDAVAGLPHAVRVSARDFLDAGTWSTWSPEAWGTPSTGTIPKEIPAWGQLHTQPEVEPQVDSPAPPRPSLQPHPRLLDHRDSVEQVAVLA

Sequence of chimeric cytokine IC7, Twin-Strep-tagged (IC7ts) (P05231 30-212, change not shown): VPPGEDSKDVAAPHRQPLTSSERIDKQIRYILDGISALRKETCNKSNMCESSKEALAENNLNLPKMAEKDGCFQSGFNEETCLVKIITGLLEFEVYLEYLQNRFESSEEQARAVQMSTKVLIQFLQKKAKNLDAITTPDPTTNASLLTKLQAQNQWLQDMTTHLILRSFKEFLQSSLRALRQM
Sequence of recombinant his-tagged soluble human IL-6R (human) (P08887 20-365): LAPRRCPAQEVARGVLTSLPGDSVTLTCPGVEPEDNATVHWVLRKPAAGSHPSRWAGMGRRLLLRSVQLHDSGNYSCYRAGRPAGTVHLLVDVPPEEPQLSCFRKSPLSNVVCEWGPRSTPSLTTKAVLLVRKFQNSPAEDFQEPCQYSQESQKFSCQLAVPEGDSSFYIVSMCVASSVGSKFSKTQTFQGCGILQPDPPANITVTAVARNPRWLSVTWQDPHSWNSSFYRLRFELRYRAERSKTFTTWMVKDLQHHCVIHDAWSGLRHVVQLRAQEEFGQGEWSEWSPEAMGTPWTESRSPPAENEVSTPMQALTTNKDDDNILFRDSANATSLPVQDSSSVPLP

chimeric cytokine IC7, Twin-Strep-tagged (IC7ts) (from UniProt P05231 30-212) (ligand)
Kd [1]: 6.38 nM | ka1 (two-state fit, first step) [1]: 92200 M⁻¹ s⁻¹ | ka2 (two-state fit, second step) [1]: 0.00751 s⁻¹ | kd1 (two-state fit, first step) [1]: 0.00932 s⁻¹ | kd2 (two-state fit, second step) [1]: 0.000506 s⁻¹ | Kd [2]: 48.1 nM | ka1 (two-state fit, first step) [2]: 59900 M⁻¹ s⁻¹ | ka2 (two-state fit, second step) [2]: 0.0104 s⁻¹ | kd1 (two-state fit, first step) [2]: 0.0193 s⁻¹ | kd2 (two-state fit, second step) [2]: 0.00183 s⁻¹
